Substitutions are numbered along the chain they refer to. “And” between values parts separate entries of the source, which are not always exact repeats. Equal values may be shown once.

The target of one assay is SARS-CoV-2 RBD-hFc (SARS-CoV-2). Briefly: Luminex beads.
For assay [1], the target named is receptor binding domain (RBD) portion of the SARS-CoV-2 Spike protein (amino acids Arg319-Phe541) ex (SARS-CoV-2).

B1: mAb10965 (antibody, V domains shown)
VH: EVQLVESGGGLIQPGGSLRLSCAASVFTVSYNYMSWVRQAPGKGLEWVSVIYSGGSTYYADSVKGRFTISRDNSKNTLYLQMNSLRAEDTAVYYCARALPGWGGSFEYFDYWGQGTLVTVSS
VL: not shown
For the molecule B1, in the assay with SARS-CoV-2 RBD-hFc, the binding result is recorded as “binds”.

B2: mAb10913 (antibody, V domains shown)
VH: EVQLVESGGGLVQPGGSLRLSCAASGFTFRNYEMNWVRQAPGKGLEWVSYITSSGSTMYYADSVKGRFTISRDNAKNSLYLQMNSLRAEDTAVYYCARDGFYYYYAMDVWGQGTTVTVSS
VL: QSVLTQPPSVSAAPGQKVTISCSGSSSNIGNNYVSWYQQLPGTAPKLLIYDNNKRPSGIPDRFSGSKSGTSATLGITGLQTGDEADYYCGTWDSSLSVGRVFGTGTKVTVLG
By IC50 is commonly meant the point on the concentration scale where inhibition reaches its midpoint. Low readings indicate greater potency in that assay, high ones weaker potency in that assay. Take B2: in assay [1], the half-maximal inhibitory concentration (IC50) was 0.217 nM.

B3: mAb10913 (antibody, V domains shown)
VH: B2 VH
VL: B2 VL
B3: in the assay with SARS-CoV-2 RBD-hFc, the binding result was “binds”.

B4: mAb10998 (antibody, V domains shown)
VH: EVQLVESGGGLVHPGGSLRLSCAASGLTVSSNYMSWVRQAPGKGLEWVSVIYSGGSTYYADSVKGRFTISRHNSKNTLFLQMNSLRAEDTAVYYCARDRPITGTTLDVWGQGTTVTVSS
VL: DIQMTQSPSSLFASVGDRVTITCRASQSISSYLNWYQQKPGKAPKLLIYAASSLQSGVPSRFSGSGSGTDFTLTISSLQPEDFAFYYCQQTYSTPPITFGQGTRLEIK
B4: in the assay with SARS-CoV-2 RBD-hFc, the binding result was “binds”.

B5: mAb10932 (antibody, V domains shown)
VH: EVQLVESGGGLVQSGGSLRLSCAASGLTVSSNYMSWVRQAPGKGLEWVSVIYSGGSTFYSDSVKGRFTISRHNSKNTLYLQMNSLRAEDTAVYYCARARGDAFDIWGQGTMVTVSS
VL: not shown
In the case of B5, the 50% inhibitory concentration (IC50) in assay [1] turned out to be 0.373 nM.

B6: mAb10971 (antibody, V domains shown)
VH: EVQLVESGGGLIQPGGSLRLSCAASGVTVSSNYMSWVRQAPGKGLEWVSVIYSGGSTFYSDSVKGRFSISRDNSKNTLYLQMNSLRAEDTAVYYCARDLYYYGMDVWGQGTTVTVSS
VL: DIQLTQSPSFLSASVGDRVTITCRASQGISTYLAWYQQKPGKAPKLLIYAASTLQSGVPSRFSGSGSGTEFTLTISSLQPEDFATYYCQQLDSYPGLTFGGGTKVEIKR
Take B6: the binding result with SARS-CoV-2 RBD-hFc is “binds”.

B7: mAb10956 (antibody, V domains shown)
VH: B6 VH with I12V, V27L, S60A, S68T, Y100I, Y101K
VL: not shown
For B7, the binding result in the assay with SARS-CoV-2 RBD-hFc is “binds”.

B8: mAb10957 (antibody, V domains shown)
VH: B6 VH with I12V, S60A, S68T, Y79F, A87I, Y100G, Y101P
VL: B6 VL with T31S, E70Q, T72I, D92N, L97F, G101P, E106D
As to B8, the binding result in the assay with SARS-CoV-2 RBD-hFc was “binds”.

B9: mAb10966 (antibody, V domains shown)
VH: EVQLVESGGGLVQPGGSLRLSCAASGLTVSSNYMSWVRQAPGKGLEWVSVIYSGGSTFYADSVKGRFTISRDNSKNTLYLQMNSLRPEDTAVYYCAREGRIAATGYGMDVWGQGTTVTVSS
VL: not shown
Take B9: the binding result with SARS-CoV-2 RBD-hFc is listed as “binds”.

B10: mAb11004 (antibody, V domains shown)
VH: QVQLVESGGGVVQPGRSLRLSCVASGFTFSIYGMDWVRQAPGKGLEWVAVISYDGSNKYYADSVKGRFTISRDNSKNTLYLQMNSLRPEDTAVYYCAKDREAAADAFDIWGQGTMVTVSS
VL: DIQMTQSPSSVSASVGDRVTITCRASQGISSWLAWYQQKPGKAPKLLIYAASSLHSGVPSRFSGSGSGTDFTLTISSLQPEDFATYYCQQANSFRLTFGGGTKVEIK
As for B10, in the assay with SARS-CoV-2 RBD-hFc, the binding result is recorded as “binds”.

B11: mAb10930 (antibody, V domains shown)
VH: EVQLVESGGGLVQPGRSLRLSCAASGFTFDDYAMYWVRQAPGKGLEWVSGISWNSGSIGYADSVKGRFTISRDNAKNSLYLQMNSLRAADTALYYCAKDKDWNSRGYYYYGMDVWGQGTTVTVSS
VL: not shown
Turning to B11, the IC50 in assay [1] stood at 0.282 nM.

B12: mAb10921 (antibody, V domains shown)
VH: EVQLVESGGGLVQPGGSLRLSCAASGITVSSNYMSWVRQAPGKGLEWVSVIYSGGSTFYADSVKGRFTISRHNSKNTLYLQMNSLRAEDTAVYYCARERNFDAFDIWGQGTMVTVSS
VL: DIQMTQSPSSVSASVGDRVTITCRASQGISSWLAWYQQKPGKAPKLLIYAASSLQSGVPSRFSGSGSGTDFTLTISSLQPEDFATYYCQQANSFPLFTFGPGTKVDIKR
In the case of B12, the IC50 in assay [1] is 0.433 nM and 0.507 nM.

B13: mAb10964 (antibody, V domains shown)
VH: QVQLQESGPGLVKPSETLSLTCTVSGGSINNYYWIWIRQPPGKGLEWIGYIYHSGSTNYNPSLKSRVTISVDTSKNQFSLKVSSVTAADTAVYYCANMVRGVYEDDYWGQGTLVTVSS
VL: DIQMTQSPSSLSASVGDRVTITCRASQSISNYLNWYQQKPGKAPKLLIFAASSLRSGVPSRFSGSGSGTDFTLTISSLHPEDFATYYCQQNYNTPLTFGPGTKVDIKR
On to B13, for which the binding result in the assay with SARS-CoV-2 RBD-hFc is “binds”.

B14: mAb11002 (antibody, V domains shown)
VH: EVQLVESGGGLVQPGGSLRLSCAASGFTVSSNYMSWVRQAPGKGLEWVSVIYSGGSTFYADSVKGRFTISRHNSKNTLYLQMNSLRAEDTAVYYCAREGYGMDVWGQGTTVTVSS
VL: not shown
B14: the binding result in the assay with SARS-CoV-2 RBD-hFc is “binds”.

B15: mAb10923 (antibody, V domains shown)
VH: QVQLVQSGAEVKKPGASVKVSCKASGYTFINYYIHWVRQAPGQGLEWMGWINPNSGGTNYAQKFQGRVTMTRDTSISTAYMELSRLRSDDTAVYYCAIITIFGVVTWFDPWGQGTLVTVSS
VL: not shown
For B15, the IC50 in assay [1] was 0.149 nM and 0.184 nM.

B16: mAb11010 (antibody, V domains shown)
VH: QVQLVESGGGVVQPGRSLRLSCAASGFTFSSYGMHWVRQAPGKGLEWVAVISYDGSYKYYADSVKGRFTISRDNSKNTLYLQMNSLRAEDTAVYYCAIDGGTVTTIFDYWGQGTLVTVSS
VL: not shown
Take B16: the binding result in the assay with SARS-CoV-2 RBD-hFc is “binds”.

B17: mAb10967 (antibody, V domains shown)
VH: EVQLVESGGGLVQPGGSLRLSCAASGFTVSSNYMSWVRQAPGKGLEWVSVIYPGGSTFYADSVKGRFTISRDNSKNTLYLQMNSLRAEDTAVYYCARDQRDFAWGQGTLVTVSS
VL: DIQMTQSPSSLSASVGDRVTITCQASQDISNYLNWYQQKPGKAPKLLIYDASNLETGVPSRFSGSGSGTDFTFTISGLQPEDIATYYCQQYDNLPPTFGQGTRLEIKR
Turning to B17, the binding result in the assay with SARS-CoV-2 RBD-hFc was “binds”.

B18: mAb10954 (antibody, V domains shown)
VH: EVQLVESGGGLVQPGGSLRLSCAASGITVSSNYMSWVRQAPGKGLEWVSLIYSGGSTYYADSVKGRFTISRDNSKNTLYLQMNSLRVEDTAVYYCARDHGMAAAGYNYWGQGTLVTVSS
VL: B17 VL with S30N, N31K, S76N, G77S, I83F, Y87F, T97A, R103K, L104V
Take B18: the binding result in the assay with SARS-CoV-2 RBD-hFc is given as “binds”.

B19: mAb10955 (antibody, V domains shown)
VH: EVQLVESGGGLVQPGGSLRVSCAASGFTVSRNYMSWVRQAPGKGLEWVSVIYSGGSTFYADSVKGRFTISRDNSKNTLYLQMNSLRAEDTAIYYCARYIPRFDPWGQGTLVTVSS
VL: B17 VL with Y36F, K42R, G77S, P96I
B19: the binding result with SARS-CoV-2 RBD-hFc is “binds”.

B20: mAb10920 (antibody, V domains shown)
VH: QVQLVESGGGVVQPGRSLRLSCAASGFTFSYYGMHWVRQAPGKGLEWVAVIWYDGSNKFYADSVKGRFTISRDNSKNTLYLQMNSLRAEDTAVYYCAAARPGYYYGMDVWGQGTTVTVSS
VL: DIQMTQSPSSLSASVGDRVTITCRASQGISNYLAWFQQKPGKAPNSLIYAASSLQRGVPSKFSGSGSGTDFTLTISSLQPEDFATYYCQQYNSYPRTFGQGTKVEIKR
Turning to B20, the IC50 in assay [1] is 0.338 nM and 0.139 nM.

B21: mAb10914 (antibody, V domains shown)
VH: EVQLVESGGGLVQPGGSLRLSCAASGLIVSRNYMIWVRQAPGKGLEWVSVIYSGGSTFYADSVKGRFTISRHNSKNTLYLQMNSLRAEDTAVYYCARDLGTGGMDVWGQGTTVTVSS
VL: DIQLTQSPSFLSASVGDRVTITCWASQGISSYLAWYQQKPGKAPKLLIYAASTLQSGVPSRFSGSGSGTEFTLTISSLQPEDFATYYCQQLNSYPLTFGGGTKVEIKR
Consider B21, for which, in assay [1], the IC50 was found to be 0.98 nM.

B22: mAb10914 (antibody, V domains shown)
VH: B21 VH
VL: B21 VL
As to B22, the binding result with SARS-CoV-2 RBD-hFc is “binds”.

B23: mAb11006 (antibody, V domains shown)
VH: EVQLVESGGGLVQPGGSLRLSCAASGFIVSRNYMSWVRQAPGKGLEWVSVIYSGGSTFYADSVKGRFTISRHNSKNTLYLQMNSLKAEDTAVYYCARELRGYFDYWGQGTLVTVSS
VL: DIQLTQSPSFLSASVGDRVTITCWASQGISSYLAWYQQKPGKAPKLLIYAASTLQSGVPSRFSGSGSGTEFTLTISSLQPEDFATYYCQLLNSYPYTFGQGTKLEIK
Consider B23, for which the binding result with SARS-CoV-2 RBD-hFc is reported as “binds”.

B24: mAb11008 (antibody, V domains shown)
VH: EVQLVESGGGLVQPGGSLRLSCAASGFTVSSNYMTWVRQAPGKGLEWVSVIYSGGSTFYADSVKGRFTISRHNSENTLYLQMNSLRAEDTAVYYCARDLAAAGTDYWGQGALVTVSS
VL: B23 VL with E81D, L90H, P95L
In the case of B24, the binding result with SARS-CoV-2 RBD-hFc was “binds”.

B25: mAb10915 (antibody, V domains shown)
VH: B23 VH with I28T, R31S, S35N, K86R, A87P, E98D, R100G
VL: not shown
B25: the 50% inhibitory concentration (IC50) in assay [1] turned out to be 0.321 nM.

The values are drawn from US20240043504A1 (published 2024).
